Target: MTBR-tau354 (human) (UniProt P10636)
Test: target engagement in human CSF, ex vivo; multiple dose 3000 mg Q4W, E2814 CSF concentrations 200-400 ng/mL; bound/(free+bound) proxy peptide

B1: antibody E2814 (antibody, human IgG1, kappa, V domains shown)
VH: EVQLLESGGGLVQPGGSLRLSCAASGYTFTTYWITWVRQAPGKGLEWVSDIYPGSSISNYNEKFKSRFTISVDNSKNTLYLQMNSLRAEDTAVYYCAREDGYDAWFAYWGQGTLVTVSS
VL: DIQMTQSPSSLSASVGDRVTITCRSSQSILHSNGNTYLEWYQQKPGKAPKLLISKVSNRFSGVPSRFSGSGSGTDFTLTISSLQPEDFATYYCFQGSHVPFTFGQGTKLEIKR
target engagement (E2814-bound MTBR-tau as percent of total free plus bound): 70%
